Data published in article PMC12423313, “Protein-based tools for the detection and characterisation of Oropouche virus infection” (EMBO Molecular Medicine, 2025).

B1: biotinylated nanobody NpA2 (AviTag-His9) (VHH)
VHH: QVQLVESGGGLVQPGGSVRLSCAASGGIFSFNAMAWYRQAPGKQRDIVALIANDGNTNYADSVKGRFTISRDNAKNTVYLQMNSLQPEDTAVYYCSALRRGAQDWGQGTQVTVSS
notes: VHH NpA2 from an immunised llama; also called bNpA2; OROV Np Nb A2 BAP H9; not shown: AviTag, C-terminal, kept
B2: biotinylated nanobody SpC6 (AviTag-His9) (VHH)
VHH: QVQLVESGGGSVQAGGSLRLSCAASGRTFSRYAMGWLRQAPGKEREFVAAITWSGGNTYYADSVKGRFTITRDDAKNTVYLQINNPKPEDTAVYYCAAGTQTGRIRDKGPSYWGQGTQVTVSS
notes: VHH SpC6 from an immunised llama; also called bSpC6; OROV Gc Spike Nb C6 BAP H9; not shown: AviTag, C-terminal, kept
B3: biotinylated nanobody SpE8 (AviTag-His9) (VHH)
VHH: QVQLVESGGGFVRAGDSLRLSCAASGRAFSTYAMGWFRQAPGKEREFVAGITLGSRITQYADSVKGRFTISRDNARQTMYLQMNNLQPEDTADYYCAARGQGSPPLRNRWSADDYNYWGQGLQVTVSS
notes: VHH SpE8 from an immunised llama; also called bSpE8; OROV Gc Spike Nb E8 BAP H9; not shown: AviTag, C-terminal, kept
B4: nanobody NpA2, His8-tagged (VHH)
VHH: B1 VHH
notes: as the VHH of m10; also called OROV Np Nb A2 H8; not shown: His8, C-terminal, kept
B5: nanobody NpD2, His8-tagged (VHH)
VHH: QVQLVESGGGLAQPGGSLRLSCAASGFTLDYYSIGWFRQAPGKEREGVSCISSGGSTYYADSVKGRFAISSDNAKNTVYLQMNSLKPEDTAVYYCAADIMSCPGKYSAVADYWGQGTQVIVDS
notes: as the VHH of m11; also called OROV Np Nb D2 H8; not shown: His8, C-terminal, kept
B6: nanobody NpE2, His8-tagged (VHH)
VHH: QVQLVESGGGLVQAGDSLRLSCVASGFTPNPAVSWVRQAPGKDLEWVSSIYHGDITSYATSVKGRFTISRDNAKNTVYLQMNSLKPEDSAIYYCTKGDSRGQGTQVTVSS
notes: as the VHH of m12; also called OROV Np Nb E2 H8; not shown: His8, C-terminal, kept
B7: nanobody NpE3, His8-tagged (VHH)
VHH: QVQLVESGGGLVRPGGSLRLSCAASGFTFSNAYMTWIRQAPGKDLEWVSSIYYGDMTSYATSVKGRFTISRDNAKNTLYLQMNNLKPEDSAIYYCTKGDERGQGTQVTVSS
notes: as the VHH of m13; also called OROV Np Nb E3 H8; not shown: His8, C-terminal, kept
B8: nanobody NpG1, His8-tagged (VHH)
VHH: QVQLVESGGGLVQPGDSLRLSCAASGRTFTDYPMAWFRQAPGKEREFVTAINWSGGATYYADSVKGRFTISRDNTRNTVFLQMNSLKPEDTAVYYCAGGSGRLSYNMDKEYIYWGQGIQVTVSS
notes: as the VHH of m15; also called OROV Np Nb G1 H8; not shown: His8, C-terminal, kept
B9: nanobody NpF2, His8-tagged (VHH)
VHH: QVQLVESGGGAVQAGGSLRLSCAASGRTFSSFPMGWFRQAPGKEREFIAAINWSGASKYYADSVKGRFAISRDNAKNTVYLQMNSLTPEDTAVYSCAAGSGRYGYTFSKEYTYWGQGTQVIVAS
notes: as the VHH of m14; also called OROV Np Nb F2 H8; not shown: His8, C-terminal, kept
B10: biotinylated nanobody NpD2 (AviTag-His9) (VHH)
VHH: B5 VHH
notes: VHH NpD2 from an immunised llama; also called bNpD2; OROV Np Nb D2 BAP H9; not shown: AviTag, C-terminal, kept
B11: nanobody SpB6, His8-tagged (VHH)
VHH: QVQLVESGGGLVQPGDSLRLSCAASGRTFSNYAMGWFRQAPGKEREKVAALSRSGTSTYYLDRVKGRFTISRDNTKNMVYLQMNSLEPEDTAVYYCAADPLFQNAAYHYSGQGTQVTVST
notes: as the VHH of m18; also called OROV Gc Spike Nb B6 H8; not shown: His8, C-terminal, kept
B12: nanobody SpC6, His8-tagged (VHH)
VHH: B2 VHH
notes: as the VHH of m19; also called OROV Gc Spike Nb C6 H8; not shown: His8, C-terminal, kept
B13: nanobody SpC7, His8-tagged (VHH)
VHH: QVQLVESGGGLVQAGGSLRLSCAASGRTFSPNAMGWFRQAPGKEREFVSAISWSGGSTTYADSVKGRFTISRDNAKNTVSLQMNSLKPEDTAVYYCAADLEGMVVADRIWGQGTQVTVSS
notes: as the VHH of m20; also called OROV Gc Spike Nb C7 H8; not shown: His8, C-terminal, kept
B14: nanobody SpE8, His8-tagged (VHH)
VHH: B3 VHH
notes: as the VHH of m21; also called OROV Gc Spike Nb E8 H8; not shown: His8, C-terminal, kept
B15: biotinylated nanobody NpE2 (AviTag-His9) (VHH)
VHH: B6 VHH
notes: VHH NpE2 from an immunised llama; also called bNpE2; OROV Np Nb E2 BAP H9; not shown: AviTag, C-terminal, kept
B16: biotinylated nanobody NpF2 (AviTag-His9) (VHH)
VHH: B9 VHH
notes: VHH NpF2 from an immunised llama; also called bNpF2; OROV Np Nb F2 BAP H9; not shown: AviTag, C-terminal, kept
B17: biotinylated nanobody NpG1 (AviTag-His9) (VHH)
VHH: B8 VHH
notes: VHH NpG1 from an immunised llama; also called bNpG1; OROV Np Nb G1 BAP H9; not shown: AviTag, C-terminal, kept
B18: OROV nucleoprotein (N), recombinant, strain BeAn19991 (natural protein, Oropouche virus strain BeAn19991)
chain: MSEFIFNDVPQRTTSTFDPEAAYVAFEARYGQVLNAGVVRVFFLNQKKAKDVLRKTSRPMVDLTFGGVQFAMVNNHFPQFQSNPVPDNGLTLHRLSGYLARWAFTQMRSPIKQAEFRATVVVPLAEVKGCTWNDGDAMYLGFAAGAEMFLQTFTFFPLVIEMHRVLKDGMDVNFMKKVLRQRYGQKTAEQWMREEIVAVRAAFEAVGTLAWARTGFSPAARDFLRQFGIDI
B19: OROV nucleoprotein (N) of strain BeAn19991, native, in virus stocks and infected cells (natural protein, Oropouche virus strain BeAn19991)
chain: B18 chain
notes: N protein of Oropouche virus strain BeAn19991, GenBank AJE24680.1, as made by the virus; also called OROV BeAn19991
B20: OROV nucleoprotein (N) of strain TRVL, native, in virus stock (natural protein)
chain: B18 chain
notes: N protein of Oropouche virus strain TRVL (Anderson et al, 1961); also called OROV TRVL
B21: OROV nucleoprotein (N) of the 2023-4 epidemic isolate AM0088, native (natural protein)
chain: B18 chain
notes: also called OROV AM0088 N
B22: OROV nucleoprotein (N) in serum of patients with acute OROV infection (natural protein)
chain: B18 chain
notes: N protein of the Oropouche virus infecting the patients; also called OROV N protein
B23: biotinylated nanobody SpA7 (AviTag-His9) (VHH)
VHH: QVQLVESGGGSVQAGGSLRLSCAASGRTFSAYVMGWFRQAPGKEREFVAAIRRSYGSTYYADSVKGRFTISTDNAKNTVTLQMNSLKPEDTAIYYCAAIRQGGGWGSSAVDYWGQGTQVTVAS
notes: VHH A7 against Gc spike from an immunised llama; also called OROV Gc Spike Nb A7 BAP H9; not shown: AviTag, C-terminal, kept
B24: biotinylated nanobody SpA9 (AviTag-His9) (VHH)
VHH: QVQLVESGGGLVQPGGSLTLSCAASGFTFSTLAMAWFRQAPGKERESVAVINRSGGIVNYADSVKGRFTITRDNAKNMVYLQMNSLKPEDTAVYYCAARTGYAYVRVSDYDSWGQGTQVTVSS
notes: VHH A9 against Gc spike from an immunised llama; also called OROV Gc Spike Nb A9 BAP H9; not shown: AviTag, C-terminal, kept
B25: biotinylated nanobody SpB6 (AviTag-His9) (VHH)
VHH: B11 VHH
notes: VHH SpB6 from an immunised llama; also called bSpB6; OROV Gc Spike Nb B6 BAP H9; not shown: AviTag, C-terminal, kept

Columns and labels:
[1] = target: B18; test: ELISA; […], biotinylated nanobody 2 µg/mL, […], room temperature; conditions: both partners purified
[2] = target: T1, OROV Gc spike region (residues 482-894 of the M polyprotein), recombinant, strain BeAn19991 (Oropouche virus strain BeAn19991, UniProt A0A0B5CLT0); test: as above; conditions: both partners purified
T1 construct: Gc spike region (head and stalk domains) of the M polyprotein of Oropouche virus strain BeAn19991, GenBank AJE24679.1, residues 482-894; also called Gc spike domain

[3] = target: B18; test: ELISA; conditions: both partners purified
[4] = target: B19; test: ELISA; conditions: one partner purified
[5] = target: B20; test: ELISA; conditions: one partner purified
[6] = target: T1, OROV Gc spike region (residues 482-894 …); test: ELISA; conditions: both partners purified
[7] = target: T2, OROV glycoprotein Gc of strain BeAn19991, native, in virus stocks and infected cells (Oropouche virus strain BeAn19991, UniProt A0A0B5CLT0); test: ELISA; conditions: one partner purified
T2 construct: On virus particles Gc stands with Gn; also called Gc spike; OROV BeAn19991

[8] = target: T3, OROV glycoprotein Gc of strain TRVL, native, in virus stock (Oropouche virus strain TRVL (stand-in: …, UniProt A0A0B5CLT0, strain)); test: ELISA; conditions: one partner purified
T3 construct: also called Gc spike; OROV TRVL

[9] = target: B18; test: BLI; streptavidin biosensors loaded with biotinylated nanobodies, 1 µM OROV N with or without 25 µM competitor nanobody, 300 s association, 30 °C, PBS-T, Octet Red; conditions: both partners purified
[10] = target: T4, nanobody-Fc fusion FcNpD2, HRP-conjugated (llama); test: ELISA
T4 construct: as the VHH of m11; also called OROV FcNpD2; not shown: Fc (human IgG1 hinge and Fc domains 2 and 3), C-terminal, kept

[11] = target: T5, biotinylated nanobody-Fc fusion bFcNpD2 (C-terminal AviTag) (llama); test: ELISA
T5 construct: as the VHH of m11; also called OROV FcNpD2 BAP; not shown: Fc (human IgG1 hinge and Fc domains 2 and 3), C-terminal, kept; AviTag, C-terminal, kept

## B1
[1]
  binding result: binds

## B2
[2]
  binding result: binds

## B3
[2]
  binding result: binds

## B4
[3]
  binding result: binds

## B5
[3]
  binding result: binds

## B6
[3]
  binding result: binds

## B7
[3]
  binding result: binds

## B8
[3]
  binding result: binds

## B9
[3]
  binding result: binds
[4]
  binding result: binds
[5]
  binding result: binds

## B10
[1]
  binding result: binds

## B11
[6]
  binding result: binds
[7]
  binding result: binds
[8]
  binding result: binds

## B12
[6]
  binding result: binds

## B13
[6]
  binding result: binds

## B14
[6]
  binding result: binds

## B15
[9]
  binding result: binds

## B16
[9]
  binding result: binds

## B17
[9]
  binding result: binds

## B18
[10]; both partners purified
  binding result: binds
[11]; both partners purified
  binding result: binds

## B19
[10]; one partner purified
  binding result: binds
[11]; one partner purified
  binding result: binds

## B20
[10]; one partner purified
  binding result: binds
[11]; one partner purified
  binding result: binds

## B21
[10]; one partner purified
  binding result: binds
[11]; one partner purified
  binding result: binds

## B22
[10]; one partner purified
  binding result: binds
[11]; one partner purified
  binding result: binds

## B23
[2]
  binding result: binds

## B24
[2]
  binding result: binds

## B25
[2]
  binding result: binds
